Data as given in patent US20240417458A1 (DISC MEDICINE, published 2024).
Values joined by “and” are separate entries in the source; they are usually repeats but may differ in a detail not shown here. Identical values can stand only once.

Legend:
soluble rat RGMa [1] = molecular target: T1, soluble rat RGMa (rat, UniProt D4A188 48-421); test: SPR (BIAcore);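 note: binding kinetics and affinity of anti-HJV antibodies toward soluble rat RGMa, determined by SPR on a BIAcore instrument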
T1 construct: Soluble antigen in BIAcore
T1 sequence: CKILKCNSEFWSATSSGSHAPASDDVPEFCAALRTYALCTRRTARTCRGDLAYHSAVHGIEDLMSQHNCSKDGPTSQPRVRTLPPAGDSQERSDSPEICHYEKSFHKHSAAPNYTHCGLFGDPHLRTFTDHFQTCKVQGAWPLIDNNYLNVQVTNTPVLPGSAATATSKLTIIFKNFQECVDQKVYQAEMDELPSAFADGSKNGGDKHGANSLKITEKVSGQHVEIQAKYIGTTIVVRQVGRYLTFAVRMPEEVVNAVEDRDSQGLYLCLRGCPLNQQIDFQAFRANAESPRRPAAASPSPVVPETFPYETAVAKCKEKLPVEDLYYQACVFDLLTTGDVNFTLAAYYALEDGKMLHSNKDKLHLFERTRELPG
Method: Binding affinities of the anti-HJV antibodies to soluble human RGMa, Rat RGMa and human RGMc were measured by BIAcore analysis.

[2] = molecular target: T2, membrane-bound human RGMc (human, UniProt Q6ZVN8 36-400); test: cell-based or functional assay
T2 sequence: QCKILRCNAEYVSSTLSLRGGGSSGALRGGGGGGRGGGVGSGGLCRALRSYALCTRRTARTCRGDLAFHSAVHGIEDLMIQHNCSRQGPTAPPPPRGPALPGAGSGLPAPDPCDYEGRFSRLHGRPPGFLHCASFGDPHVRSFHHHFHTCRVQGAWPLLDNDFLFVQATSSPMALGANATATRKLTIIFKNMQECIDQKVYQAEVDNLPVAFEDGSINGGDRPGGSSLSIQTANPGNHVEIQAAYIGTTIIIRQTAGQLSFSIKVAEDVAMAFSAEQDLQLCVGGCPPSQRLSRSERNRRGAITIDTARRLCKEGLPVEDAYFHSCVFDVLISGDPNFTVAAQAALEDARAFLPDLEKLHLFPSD

FcRn = molecular target: T3, FcRn; test: SPR (BIAcore) at pH 6.0
T3 construct: also called neonatal Fc receptor

soluble rat RGMa [3] = molecular target: T1, soluble rat RGMa; test: SPR (BIAcore), RGM antigen in solution
soluble human RGMc [4] = molecular target: T4, soluble human RGMc (human, UniProt Q6ZVN8 36-400); test: SPR (BIAcore), RGM antigen in solution
T4 construct: also called huRGMc; soluble hRGMc
T4 sequence: T2 sequence

Cyno RGMa = molecular target: T5, Cyno RGMa (cyno, UniProt Q9N0A6 54-433, limits assumed); test: SPR (BIAcore), RGM antigen in solution
T5 sequence (looked up): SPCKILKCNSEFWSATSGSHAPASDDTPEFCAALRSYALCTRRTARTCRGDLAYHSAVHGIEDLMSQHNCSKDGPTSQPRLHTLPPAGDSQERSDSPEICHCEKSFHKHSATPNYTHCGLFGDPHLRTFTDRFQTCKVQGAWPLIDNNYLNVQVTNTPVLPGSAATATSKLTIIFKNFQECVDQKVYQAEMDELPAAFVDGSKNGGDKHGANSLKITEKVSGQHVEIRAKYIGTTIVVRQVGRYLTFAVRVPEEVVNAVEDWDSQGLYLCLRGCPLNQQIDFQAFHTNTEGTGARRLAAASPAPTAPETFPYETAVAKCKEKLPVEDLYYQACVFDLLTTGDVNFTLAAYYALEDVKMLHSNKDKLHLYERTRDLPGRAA

Rat RGMc = molecular target: T6, Rat RGMc (rat, UniProt Q8N7M5 36-396, limits assumed); test: SPR (BIAcore), RGM antigen in solution
T6 sequence (looked up): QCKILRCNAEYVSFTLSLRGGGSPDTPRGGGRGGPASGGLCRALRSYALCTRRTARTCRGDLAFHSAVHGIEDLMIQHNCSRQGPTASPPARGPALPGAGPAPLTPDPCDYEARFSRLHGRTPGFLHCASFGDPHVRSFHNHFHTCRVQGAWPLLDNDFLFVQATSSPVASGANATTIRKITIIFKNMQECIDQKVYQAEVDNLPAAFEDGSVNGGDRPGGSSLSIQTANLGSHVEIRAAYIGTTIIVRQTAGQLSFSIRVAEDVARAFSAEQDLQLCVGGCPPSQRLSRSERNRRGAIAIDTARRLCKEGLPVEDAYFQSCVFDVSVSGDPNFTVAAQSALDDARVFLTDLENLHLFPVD

Human RGMb = molecular target: T7, Human RGMb (human, UniProt Q6NW40 46-413, limits assumed); test: SPR (BIAcore), RGM antigen in solution
T7 construct: also called repulsive guidance molecule B
T7 sequence (looked up): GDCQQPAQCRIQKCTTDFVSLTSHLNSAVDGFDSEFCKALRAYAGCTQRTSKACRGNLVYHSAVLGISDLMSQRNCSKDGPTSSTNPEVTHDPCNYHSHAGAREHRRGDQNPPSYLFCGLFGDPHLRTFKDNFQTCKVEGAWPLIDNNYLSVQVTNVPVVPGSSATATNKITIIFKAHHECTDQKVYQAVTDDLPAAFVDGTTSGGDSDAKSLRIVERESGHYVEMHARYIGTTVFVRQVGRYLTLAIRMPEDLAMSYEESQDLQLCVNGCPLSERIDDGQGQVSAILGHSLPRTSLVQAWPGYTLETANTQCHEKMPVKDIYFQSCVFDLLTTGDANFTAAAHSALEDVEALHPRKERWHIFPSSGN

soluble human RGMc [5] = molecular target: T4, soluble human RGMc; test: SPR (BIAcore), soluble hRGMc; summary table

Kd (soluble rat RGMa [1]): < 0.0015 nM
koff (soluble rat RGMa [1]): < 1e-06 s⁻¹
kon (soluble rat RGMa [1]): 660000 M⁻¹ s⁻¹
IC50 (nM), BMP reporter assay for RGMc (BRE-Luc, HEK293) [2]: 0.377 nM
Kd (FcRn): 2950 nM and 2960 nM
Kd (soluble rat RGMa [3]): 0.12 nM
koff (soluble rat RGMa [3]): 3.6e-05 s⁻¹
kon (soluble rat RGMa [3]): 310000 M⁻¹ s⁻¹
Kd (soluble human RGMc [4]): 0.12 nM
koff (soluble human RGMc [4]): 0.00029 s⁻¹
kon (soluble human RGMc [4]): 2.5e+06 M⁻¹ s⁻¹
Kd (Cyno RGMa): 0.64 nM
koff (Cyno RGMa): 0.00035 s⁻¹
kon (Cyno RGMa): 550000 M⁻¹ s⁻¹
Kd (Rat RGMc): 0.23 nM
koff (Rat RGMc): 0.00032 s⁻¹
kon (Rat RGMc): 1.4e+06 M⁻¹ s⁻¹
binding result (Human RGMb): no binding
Kd (soluble human RGMc [5]): 0.105 nM
koff (soluble human RGMc [5]): 0.00039 s⁻¹
kon (soluble human RGMc [5]): 3.95e+06 M⁻¹ s⁻¹
B1: hHA-008 (antibody, human IgG1, kappa, L234A L235A)
heavy: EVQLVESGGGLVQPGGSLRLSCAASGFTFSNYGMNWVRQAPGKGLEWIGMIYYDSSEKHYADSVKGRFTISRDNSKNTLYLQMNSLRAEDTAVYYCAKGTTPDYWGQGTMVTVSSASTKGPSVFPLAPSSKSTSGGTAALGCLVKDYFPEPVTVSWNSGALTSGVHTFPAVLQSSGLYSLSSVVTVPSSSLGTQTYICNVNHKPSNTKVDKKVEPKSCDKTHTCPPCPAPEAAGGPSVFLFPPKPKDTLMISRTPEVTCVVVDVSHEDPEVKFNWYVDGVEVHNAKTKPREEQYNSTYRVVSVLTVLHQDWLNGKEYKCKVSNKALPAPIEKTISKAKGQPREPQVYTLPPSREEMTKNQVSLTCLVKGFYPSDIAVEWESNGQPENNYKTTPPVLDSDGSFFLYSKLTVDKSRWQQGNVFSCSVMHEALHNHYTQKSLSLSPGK
light: DVVLTQSPLSLPVTLGQPASISCRSSQSLEESDGYTFLHWFQQRPGQSPRLLIYEVSTRFSGVPDRFSGSGSGTDFTLKISRVEAEDVGVYYCFQATHDPLTFGQGTKLEIKRTVAAPSVFIFPPSDEQLKSGTASVVCLLNNFYPREAKVQWKVDNALQSGNSQESVTEQDSKDSTYSLSSTLTLSKADYEKHKVYACEVTHQGLSSPVTKSFNRGEC
notes: hIgG1 L234A, L235A, kappa; also called hHA-008 (hIgG1mut(LALA)/k)
